Among the data in article PMC10371073 are response (PLA foci/cell) values, retold here.

Sequences and labels used below:
B1: Fused in Sarcoma (FUS), endogenous wild type [human (endogenous in HEK293 and human fibroblasts)] / DNA Ligase IIIα (Lig3), mitochondrial form mtLig3 [human (endogenous in HEK293 and human fibroblasts)] (parent)
chain 1: MASNDYTQQATQSYGAYPTQPGQGYSQQSSQPYGQQSYSGYSQSTDTSGYGQSSYSSYGQSQNTGYGTQSTPQGYGSTGGYGSSQSSQSSYGQQSSYPGYGQQPAPSSTSGSYGSSSQSSSYGQPQSGSYSQQPSYGGQQQSYGQQQSYNPPQGYGQQNQYNSSSGGGGGGGGGGNYGQDQSSMSSGGGSGGGYGNQDQSGGGGSGGYGQQDRGGRGRGGSGGGGGGGGGGYNRSSGGYEPRGRGGGRGGRGGMGGSDRGGFNKFGGPRDQGSRHDSEQDNSDNNTIFVQGLGENVTIESVADYFKQIGIIKTNKKTGQPMINLYTDRETGKLKGEATVSFDDPPSAKAAIDWFDGKEFSGNPIKVSFATRRADFNRGGGNGRGGRGRGGPMGRGGYGGGGSGGGGRGGFPSGGGGGGGQQRAGDWKCPNPTCENMNFSWRNECNQCKAPKPDGPGGGPGGSHMGGNYGDDRRGGRGGYDRGGYRGRGGDRGGFRGGRGGGDRGGFGPGKMDSRGEHRQDRRERPY
chain 2: LLHGHPLFLRRKPVLSFQGSHLRSRATYLVFLPGLHVGLCSGPCEMAEQRFCVDYAKRGTAGCKKCKEKIVKGVCRIGKVVPNPFSESGGDMKEWYHIKCMFEKLERARATTKKIEDLTELEGWEELEDNEKEQITQHIADLSSKAAGTPKKKAVVQAKLTTTGQVTSPVKGASFVTSTNPRKFSGFSAKPNNSGEAPSSPTPKRSLSSSKCDPRHKDCLLREFRKLCAMVADNPSYNTKTQIIQDFLRKGSAGDGFHGDVYLTVKLLLPGVIKTVYNLNDKQIVKLFSRIFNCNPDDMARDLEQGDVSETIRVFFEQSKSFPPAAKSLLTIQEVDEFLLRLSKLTKEDEQQQALQDIASRCTANDLKCIIRLIKHDLKMNSGAKHVLDALDPNAYEAFKASRNLQDVVERVLHNAQEVEKEPGQRRALSVQASLMTPVQPMLAEACKSVEYAMKKCPNGMFSEIKYDGERVQVHKNGDHFSYFSRSLKPVLPHKVAHFKDYIPQAFPGGHSMILDSEVLLIDNKTGKPLPFGTLGVHKKAAFQDANVCLFVFDCIYFNDVSLMDRPLCERRKFLHDNMVEIPNRIMFSEMKRVTKALDLADMITRVIQEGLEGLVLKDVKGTYEPGKRHWLKVKKDYLNEGAMADTADLVVLGAFYGQGSKGGMMSIFLMGCYDPGSQKWCTVTKCAGGHDDATLARLQNELDMVKISKDPSKIPSWLKVNKIYYPDFIVPDPKKAAVWEITGAEFSKSEAHTADGISIRFPRCTRIRDDKDWKSATNLPQLKELYQLSKEKADFTVVAGDEGSSTTGGSSEENKGPSGSAVSRKAPSKPSASTKKAEGKLSNSNSKDGNMQTAKPSAMKVGEKLATKSSPVKVGEKRKAADETLCQTKVLLDIFTGVRLYLPPSTPDFSRLRRYFVAFDGDLVQEFDMTSATHVLGSRDKNPAAQQVSPEWIWACIRKRRLVAPC

Variants of B1 are the subject of the test. Nature of the test: proximity ligation assay (PLA) in control and patient derived fibroblasts. To be noted: with DNA Ligase IIIα (Lig3), GO treatment (100ng/ml for 1 hr) per legend, the box plot does not say whether control or GO-treated cells were counted, parent: 64, read off a plot.
As to chain 1 R521H, the response (PLA foci/cell) is 19.

On to chain 1 P525L, for which the response (PLA foci/cell) was 20.
